Data: publication PMC4755347

Molecular target: C. jejuni outer membrane channel CmeC (C. jejuni) (UniProt Q8RTE3)
Test: crystal structure

C. jejuni outer membrane channel CmeC (from UniProt Q8RTE3 1-492) (natural protein)
stoichiometry N: 3
